This is an account of results in patent US20150344570A1 (published 2015).

Test [1] deals with T1, FcγRIIb extracellular domain with C-terminal His tag (human, UniProt P31994 43-217).
T1 construct: extracellular domain; soluble analyte in Biacore; also called FcgRIIb; not shown: His tag at the C terminus
T1 sequence (looked up): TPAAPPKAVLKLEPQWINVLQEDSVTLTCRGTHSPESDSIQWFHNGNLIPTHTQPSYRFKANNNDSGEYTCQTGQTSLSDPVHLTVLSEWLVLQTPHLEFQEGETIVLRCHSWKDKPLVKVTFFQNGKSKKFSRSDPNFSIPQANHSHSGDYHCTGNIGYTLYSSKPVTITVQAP
As to the kind of experiment: SPR, binding relative to GpH7-A5/GpH7-B3/GpL16-k0 = 100.

Test [2] deals with T2, FcγRIa extracellular domain with C-terminal His tag (human, UniProt P12314 16-292).
T2 construct: extracellular domain; soluble analyte in Biacore; also called FcgRI; not shown: His tag at the C terminus
The description is as above.
T2 sequence (P12314 16-292): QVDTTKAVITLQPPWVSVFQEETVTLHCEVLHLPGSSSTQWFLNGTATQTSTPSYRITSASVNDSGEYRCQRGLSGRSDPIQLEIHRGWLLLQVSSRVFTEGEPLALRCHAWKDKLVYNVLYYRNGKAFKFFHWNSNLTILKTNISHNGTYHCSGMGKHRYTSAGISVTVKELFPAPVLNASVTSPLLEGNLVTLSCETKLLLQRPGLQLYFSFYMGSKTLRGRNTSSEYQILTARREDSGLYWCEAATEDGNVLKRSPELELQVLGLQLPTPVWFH

Test [3] deals with T3, FcγRIa extracellular domain with C-terminal His tag (human, UniProt P12314 16-292).
T3 construct: extracellular domain; expressed in FreeStyle293 cells; analyte in Biacore; also called FcgRI; 1a
The experiment in a line: SPR (Biacore), captured antibody, FcγR as analyte; relative binding.
T3 sequence (P12314 16-292): as above

The target of test [4] is T4, FcγRIIb extracellular domain with C-terminal His tag (human, UniProt P31994 43-217).
T4 construct: extracellular domain; expressed in FreeStyle293 cells; analyte in Biacore; also called FcgRIIb; 2b
T4 sequence (looked up): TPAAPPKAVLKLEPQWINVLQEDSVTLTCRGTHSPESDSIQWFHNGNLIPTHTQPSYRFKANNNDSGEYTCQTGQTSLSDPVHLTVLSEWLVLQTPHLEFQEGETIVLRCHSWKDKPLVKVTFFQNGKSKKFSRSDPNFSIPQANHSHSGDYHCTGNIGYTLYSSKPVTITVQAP
The description is as above.

B1: GpH7-A5/GpH7-B3 variant A330_03V/GpL16-k0 (antibody, human IgG1, kappa)
heavy 1: not shown
heavy 2: not shown
light: DIVMTQSPLSLPVTPGEPASISCQASESLVHSNRNTYLHWYLQKPGQSPQLLIYKVSNRFSGVPDRFSGSGSGTDFTLKISRVEAEDVGVYYCSQNTHVPPTFGQGTKVEIERTVAAPSVFIFPPSDEQLKSGTASVVCLLNNFYPREAKVQWKVDNALQSGNSQESVTEQDSKDSTYSLSSTLTLSKADYEKHKVYACEVTHQGLSSPVTKSFNRGEC
notes: change in the GpH7-B3 H chain only; also called He Ab
Regarding B1, the He/Con_2b in test [1] was 52.4 % of control. The He/Con_1a in test [2] was 106 % of control.

B2: GpH7-A5/GpH7-B3 variant A330_08L/GpL16-k0 (antibody, human IgG1, kappa)
heavy 1: not shown
heavy 2: not shown
light: DIVMTQSPLSLPVTPGEPASISCQASESLVHSNRNTYLHWYLQKPGQSPQLLIYKVSNRFSGVPDRFSGSGSGTDFTLKISRVEAEDVGVYYCSQNTHVPPTFGQGTKVEIERTVAAPSVFIFPPSDEQLKSGTASVVCLLNNFYPREAKVQWKVDNALQSGNSQESVTEQDSKDSTYSLSSTLTLSKADYEKHKVYACEVTHQGLSSPVTKSFNRGEC
notes: as for B1
Regarding B2, the He/Con_2b in test [1] was 70.5 % of control. Besides, the He/Con_1a in test [2] is 107 % of control.

B3: GpH7-A5/GpH7-B3 variant A327_06M/GpL16-k0 (antibody, human IgG1, kappa)
heavy 1: not shown
heavy 2: not shown
light: DIVMTQSPLSLPVTPGEPASISCQASESLVHSNRNTYLHWYLQKPGQSPQLLIYKVSNRFSGVPDRFSGSGSGTDFTLKISRVEAEDVGVYYCSQNTHVPPTFGQGTKVEIERTVAAPSVFIFPPSDEQLKSGTASVVCLLNNFYPREAKVQWKVDNALQSGNSQESVTEQDSKDSTYSLSSTLTLSKADYEKHKVYACEVTHQGLSSPVTKSFNRGEC
notes: as for B1
For the molecule B3, the He/Con_2b in test [1] is 59.5 % of control. Further, in test [2], the He/Con_1a is 103 % of control.

B4: GpH7-A5/GpH7-B3 variant A330_11K/GpL16-k0 (antibody, human IgG1, kappa)
heavy 1: not shown
heavy 2: not shown
light: DIVMTQSPLSLPVTPGEPASISCQASESLVHSNRNTYLHWYLQKPGQSPQLLIYKVSNRFSGVPDRFSGSGSGTDFTLKISRVEAEDVGVYYCSQNTHVPPTFGQGTKVEIERTVAAPSVFIFPPSDEQLKSGTASVVCLLNNFYPREAKVQWKVDNALQSGNSQESVTEQDSKDSTYSLSSTLTLSKADYEKHKVYACEVTHQGLSSPVTKSFNRGEC
notes: as for B1
Regarding B4, in test [1], the He/Con_2b is 95 % of control. In addition, the He/Con_1a in test [2] is 103 % of control.

B5: GpH7-A5/GpH7-B3 variant A330_07I/GpL16-k0 (antibody, human IgG1, kappa)
heavy 1: not shown
heavy 2: not shown
light: DIVMTQSPLSLPVTPGEPASISCQASESLVHSNRNTYLHWYLQKPGQSPQLLIYKVSNRFSGVPDRFSGSGSGTDFTLKISRVEAEDVGVYYCSQNTHVPPTFGQGTKVEIERTVAAPSVFIFPPSDEQLKSGTASVVCLLNNFYPREAKVQWKVDNALQSGNSQESVTEQDSKDSTYSLSSTLTLSKADYEKHKVYACEVTHQGLSSPVTKSFNRGEC
notes: as for B1
B5: the He/Con_2b in test [1] is 67.1 % of control. The He/Con_1a in test [2] was 105 % of control.

B6: GpH7-A5/GpH7-B3 variant A330_14T/GpL16-k0 (antibody, human IgG1, kappa)
heavy 1: not shown
heavy 2: not shown
light: DIVMTQSPLSLPVTPGEPASISCQASESLVHSNRNTYLHWYLQKPGQSPQLLIYKVSNRFSGVPDRFSGSGSGTDFTLKISRVEAEDVGVYYCSQNTHVPPTFGQGTKVEIERTVAAPSVFIFPPSDEQLKSGTASVVCLLNNFYPREAKVQWKVDNALQSGNSQESVTEQDSKDSTYSLSSTLTLSKADYEKHKVYACEVTHQGLSSPVTKSFNRGEC
notes: as for B1
With B6, the He/Con_2b in test [1] is 77.9 % of control. In addition, in test [2], the He/Con_1a is 105 % of control.

B7: GpH7-A5/GpH7-B3 variant A330_09D/GpL16-k0 (antibody, human IgG1, kappa)
heavy 1: not shown
heavy 2: not shown
light: DIVMTQSPLSLPVTPGEPASISCQASESLVHSNRNTYLHWYLQKPGQSPQLLIYKVSNRFSGVPDRFSGSGSGTDFTLKISRVEAEDVGVYYCSQNTHVPPTFGQGTKVEIERTVAAPSVFIFPPSDEQLKSGTASVVCLLNNFYPREAKVQWKVDNALQSGNSQESVTEQDSKDSTYSLSSTLTLSKADYEKHKVYACEVTHQGLSSPVTKSFNRGEC
notes: as for B1
In the case of B7, the He/Con_2b in test [1] was 55.6 % of control. The He/Con_1a in test [2] is 109 % of control.

B8: GpH7-A5/GpH7-B3 variant Y300_20W/GpL16-k0 (antibody, human IgG1, kappa)
heavy 1: not shown
heavy 2: not shown
light: DIVMTQSPLSLPVTPGEPASISCQASESLVHSNRNTYLHWYLQKPGQSPQLLIYKVSNRFSGVPDRFSGSGSGTDFTLKISRVEAEDVGVYYCSQNTHVPPTFGQGTKVEIERTVAAPSVFIFPPSDEQLKSGTASVVCLLNNFYPREAKVQWKVDNALQSGNSQESVTEQDSKDSTYSLSSTLTLSKADYEKHKVYACEVTHQGLSSPVTKSFNRGEC
notes: He Ab; IgG1, mutation in one H chain
As to B8, in test [3], the He/Con_1a is 112 % of HeCon Ab (GpH7-A5/GpH7-B3/GpL16-k0 = 100). Also, the He/Con_2b in test [4] is 84.1 % of HeCon Ab (GpH7-A5/GpH7-B3/GpL16-k0 = 100).

B9: GpH7-A5/GpH7-B3 variant Y300_14T/GpL16-k0 (antibody, human IgG1, kappa)
heavy 1: not shown
heavy 2: not shown
light: DIVMTQSPLSLPVTPGEPASISCQASESLVHSNRNTYLHWYLQKPGQSPQLLIYKVSNRFSGVPDRFSGSGSGTDFTLKISRVEAEDVGVYYCSQNTHVPPTFGQGTKVEIERTVAAPSVFIFPPSDEQLKSGTASVVCLLNNFYPREAKVQWKVDNALQSGNSQESVTEQDSKDSTYSLSSTLTLSKADYEKHKVYACEVTHQGLSSPVTKSFNRGEC
notes: as for B8
Regarding B9, the He/Con_1a in test [3] was 112 % of HeCon Ab (GpH7-A5/GpH7-B3/GpL16-k0 = 100). In test [4], the He/Con_2b is 55.6 % of HeCon Ab (GpH7-A5/GpH7-B3/GpL16-k0 = 100).
